Measured values from patent US8889408B2, “Factor taking part in transcription control” (Sony Corporation, priority 2002, dated 2014).

Legend:
retinoic acid receptor = assay: RAR reporter CAT analysis in HepG2 cells; assay type: cell-based; settings: pcDNA3-HDART 0, 0.5, 1.0 μg; ATRA 10^−8 M; HepG2 cells
Procedure: Since it is shown in the above example that HDART is able to interact with Skip, the functional role of HDART on the transcription route ascribed to a nuclear receptor was analyzed. First, the effect of HDART on the transcription regulation by retinoic acid receptor was analyzed. For this purpose, the CAT analysis was made using a RAR (retinoid acid receptor) reporter plasmid incorporating a thymidine kinase minimum promoter (pTREpal-tata) and CAT gene therein downstream of a retinoid response element.
More particularly, pcDNA3-HDART, capable of steadily expressing HDART, and, at the same time, RAR reporter plasmid, were transfected into HepG2 cells by use of Effectene kit (QIAGEN™). It is to be noted that the pcDNA3-HDART expression vector was introduced in different amounts of 0, 0.5 and 1.0 μg, and the amount of DNA in the respective transfections was equalized at 1 μg by adding the appropriate amount of a vacant vector of pcDNA. After the transfection, growth was made in the presence (10^−8 M) or absence of ATRA and the CAT activity was measured. The results of the measurement (FIG. 6) are indicated in terms of values corrected on the basis of the CAT activity obtained after introduction of 1.0 μg of a vacant vector in the absence of ATRA. In addition, the average of the results of three experiments and a standard deviation in terms of an error bar are also shown.
Next, the influence of the overexpression of N4TPR on the transcription from RAR or a glucocorticoid responsive promoter was checked. It will be noted that this test was made in the same manner as in the reporter analysis set out in Example 4, but using GFP-N4TPR expression vector (0, 0.3 and 0.5 μg).

Skip = target: T1, Skip (Homo sapiens, UniProt Q13573); assay: Immunoprecipitation analysis of HDART-Skip interaction in 293 cells; assay type: binding; parameters: expressed in transfected cells; host or cells: HEK293 cells
T1 sequence (Q13573 1-536): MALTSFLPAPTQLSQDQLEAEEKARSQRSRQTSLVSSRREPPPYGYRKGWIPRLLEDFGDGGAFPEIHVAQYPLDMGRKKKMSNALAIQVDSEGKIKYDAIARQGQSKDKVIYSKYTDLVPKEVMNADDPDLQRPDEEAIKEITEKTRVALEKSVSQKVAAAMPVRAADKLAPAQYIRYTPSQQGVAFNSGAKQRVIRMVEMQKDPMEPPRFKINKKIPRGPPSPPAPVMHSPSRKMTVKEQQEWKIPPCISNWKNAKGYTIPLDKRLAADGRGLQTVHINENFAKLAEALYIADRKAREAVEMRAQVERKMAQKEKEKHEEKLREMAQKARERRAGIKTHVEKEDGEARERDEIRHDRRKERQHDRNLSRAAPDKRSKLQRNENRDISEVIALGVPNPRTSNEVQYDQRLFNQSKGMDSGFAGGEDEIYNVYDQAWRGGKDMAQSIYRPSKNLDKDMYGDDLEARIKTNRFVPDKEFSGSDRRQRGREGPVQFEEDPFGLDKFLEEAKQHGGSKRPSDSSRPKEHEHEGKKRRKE
Procedure: The interaction between HDART and Skip inside the mammalian cells was confirmed according to the immunoprecipitation analysis. For the confirmation, the Flag-Skip expression vector expressing the Flag-Skip fused protein and the GFP-HDART expression protein expressing the GFP-HDART fused protein (FIG. 4A) were transfected into HEK293 cells by use of Effectene kit (QIAGEN™). It will be noted that a control experiment was conducted such that the Flag-Skip expression vector alone and the GFP-HDART expression vector were, respectively, transfected into cells of the same type under the same conditions.
24 hours after the transfection, the cells were lysed on ice for 30 minutes in a Nonidet P-40 buffer solution (50 mM Tris HCl (pH 7.6), 150 mM NaCl, 5 mM EDTA, 0.5% Nonidet P-40 and 1 mM PMSF) containing 100 μl of a protease inhibitory substance cocktail (Sigma #p8340) to prepare a cell extract (1 mg). This extract was incubated for 30 minutes at 4° C. along with 40 μl of protein A/G sepharose beads for preliminary clarification. Next, the thus clarified supernatant extract was further incubated for 1 hour along with an anti-Flag antibody or a negative control mouse IgG antibody (2 μg), followed by precipitation for 30 minutes by use of 40 μl of protein A/G sepharose beads. […]
Further, the interaction of endogenous HDART and externally introduced Skip was analyzed. […]

B1: HDART: HDAC associated repressor TPR protein, 855 amino acids, SEQ ID NO: 2; transcription repressing factor, used as fusions or expressed from vector (protein, listed as Homo sapiens)
chain: MVVMARLSRPERPDLVFEEEDLPYEEEIMRNQFSVKCWLRYIEFKQGAPKPRLNQLYERALKLLPCSYKLWYRYLKARRAQVKHRCVTDPAYEDVNNCHERAFVFMHKMPRLWLDYCQFLMDQGRVTHTRRTFDRALRALPITQHSRIWPLYLRFLRSHPLPETAVRGYRRFLKLSPESAEEYIEYLKSSDRLDEAAQRLATVVNDERFVSKAGKSNYQLWHELCDLISQNPDKVQSLNVDAIIRGGLTRFTDQLGKLWCSLADYYIRSGHFEKARDVYEEAIRTVMTVRDFTQVFDSYAQFEESMIAAKMETASELGREEEDDVDLELRLARFEQLISRRPLLLNSVLLRQNPHHVHEWHKRVALHQGRPREIINTYTEAVQTVDPFKATGKPHTLWVAFAKFYEDNGQLDDARVILEKATKVNFKQVDDLASVWCQCGELELRHENYDEALRLLRKATALPARRAEYFDGSEPVQNRVYKSLKVWSMLADLEESLGTFQSTKAVYDRILDLRIATPQIVINYAMFLEEHKYFEESFKAYERGISLFKWPNVSDIWSTYLTKFIARYGGRKLERARDLFEQALDGCPPKYAKTLYLLYAQLEEEWGLARHAMAVYERATRAVEPAQQYDMFNIYIKRAAEIYGVTHTRGIYQKAIEVLSDEHAREMCLRFADMECKLGEIDRARAIYSFCSQICDPRTTGAFWQTWKDFEVRHGNEDTIKEMLRIRRSVQATYNTQVNFMASQMLKVSGSATGTVSDLAPGQSGMDDMKLLEQRAEQLAAEAERDQPLRAQSKILFVRSDASREELAELAQQVNPEEIQLGEDEDEDEMDLEPNEVRLEQQSVPAAVFGSLKED
ATRA-induced CAT activity (retinoic acid receptor): inhibited by HDART in a concentration dependent manner | co-precipitation of endogenous HDART with Flag-Skip (Skip; 293 cells, anti-Flag antibody): co-precipitated | interaction of foreign HDART (GFP-HDART) with Flag-Skip (Skip; co-expression in 293 cells, immunoprecipitation with anti-Flag antibody): specifically interact
